Several values for one entry are separate records, joined by “and”; a condition that tells them apart may be missing. Equal values may be shown once.
Columns and labels:
[1] = molecular target: recombinant human IL-5 protein (human) (UniProt P05113); test: FACS blocking: biotin-IL-5 bound to CHOK1 IL-5Ra/CSF2RB cells, Ab 0.0004 nM
[2] = molecular target: recombinant human IL-5 protein (human) (UniProt P05113); test: cell-based or functional assay
[3] = molecular target: recombinant human IL-5 protein (human) (UniProt P05113); test: FACS blocking: biotin-IL-5 bound to CHOK1 IL-5Ra/CSF2RB cells, Ab 6.6667 nM
[4] = molecular target: recombinant human IL-5 protein (human) (UniProt P05113); test: FACS blocking: biotin-IL-5 bound to CHOK1 IL-5Ra/CSF2RB cells, Ab 33.3333 nM
[5] = molecular target: recombinant human IL-5 protein (human) (UniProt P05113); test: ELISA, biotin-human IL-5 on streptavidin plate, Ab 13.3333 nM
[6] = molecular target: recombinant human IL-5 protein (human) (UniProt P05113); test: ELISA, biotin-human IL-5 on streptavidin plate, Ab 0.0213 nM
[7] = molecular target: recombinant human IL-5 protein (human) (UniProt P05113); test: FACS blocking: biotin-IL-5 bound to CHOK1 IL-5Ra/CSF2RB cells, Ab 0.0533 nM
[8] = molecular target: recombinant human IL-5 protein (human) (UniProt P05113); test: ELISA, biotin-human IL-5 on streptavidin plate, Ab 0.0009 nM
[9] = molecular target: recombinant human IL-5 protein (human) (UniProt P05113); test: FACS blocking: biotin-IL-5 bound to CHOK1 IL-5Ra/CSF2RB cells, Ab 0.2667 nM
[10] = molecular target: recombinant human IL-5 protein (human) (UniProt P05113); test: ELISA, biotin-human IL-5 on streptavidin plate, Ab 0.1067 nM
[11] = molecular target: recombinant human IL-5 protein (human) (UniProt P05113); test: FACS blocking: biotin-IL-5 bound to CHOK1 IL-5Ra/CSF2RB cells, Ab 0.0107 nM
[12] = molecular target: recombinant human IL-5 protein (human) (UniProt P05113); test: ELISA, biotin-human IL-5 on streptavidin plate, Ab 2.6667 nM
[13] = molecular target: recombinant human IL-5 protein (human) (UniProt P05113); test: SPR, human IL-5 immobilized on CM5 chip, chimeric antibody as analyte, 1:1 global fit
[14] = molecular target: recombinant human IL-5 protein (human) (UniProt P05113); test: ELISA, biotin-human IL-5 on streptavidin plate, Ab 0.0002 nM
[15] = molecular target: recombinant human IL-5 protein (human) (UniProt P05113); test: FACS blocking: biotin-IL-5 bound to CHOK1 IL-5Ra/CSF2RB cells, Ab 0.0021 nM
[16] = molecular target: recombinant human IL-5 protein (human) (UniProt P05113); test: ELISA, biotin-human IL-5 on streptavidin plate, Ab 0.5333 nM
[17] = molecular target: recombinant human IL-5 protein (human) (UniProt P05113); test: FACS blocking: biotin-IL-5 bound to CHOK1 IL-5Ra/CSF2RB cells, Ab 1.3333 nM
[18] = molecular target: recombinant human IL-5 protein (human) (UniProt P05113); test: ELISA, biotin-human IL-5 on streptavidin plate, Ab 0.0043 nM

B1: 151G3B11 mouse-human chimeric antibody (antibody, human IgG4, V domains shown)
VH: EVHLQQSGAELVKPGASVKLSCTASGFNIKDYYMHWVKQRTEQGLEWIGRIDPEDGETKYAPKFQGQATITADTSSNTANLQLSSLTSEDTAVYYCARYGNFPDYWGPGTTLTVSS
VL: QIVLTQSPALMSASPGEKVTMTCSASSSVSYMYWYQQKPRSSPKPWIYLTSKLASGVPARFSGSGSGTSYSLTISSMEAEDAATYYCQQWNSNPYTFGGGTKLEIK
Fluorescence intensity [1]: 95 MFI
RLU, CTLL-2 proliferation with IL-5, Ab 0.000170667 nM [2]: 47900 RLU and 63200 RLU
RLU, CTLL-2 proliferation with IL-5, Ab 0.000853333 nM [2]: 54300 RLU and 63000 RLU
RLU, CTLL-2 proliferation with IL-5, Ab 0.004266667 nM [2]: 51200 RLU and 58000 RLU
RLU, CTLL-2 proliferation with IL-5, Ab 0.02133333 nM [2]: 41700 RLU and 43900 RLU
RLU, CTLL-2 proliferation with IL-5, Ab 0.1066667 nM [2]: 10900 RLU and 10300 RLU
RLU, CTLL-2 proliferation with IL-5, Ab 0.5333334 nM [2]: 8370 RLU and 8250 RLU
RLU, CTLL-2 proliferation with IL-5, Ab 2.666667 nM [2]: 6580 RLU and 7940 RLU
RLU, CTLL-2 proliferation with IL-5, Ab 13.33333 nM [2]: 5750 RLU and 5810 RLU
RLU, CTLL-2 proliferation with IL-5, Ab 66.66666 nM [2]: 3690 RLU and 4030 RLU
RLU, CTLL-2 proliferation with IL-5, Ab 3.41333E-05 nM [2]: 46800 RLU and 55000 RLU
RLU, TF-1 proliferation with IL-5, Ab 0.00001 nM [2]: 95500 RLU and 93900 RLU
RLU, TF-1 proliferation with IL-5, Ab 0.00003 nM [2]: 89800 RLU and 92600 RLU
RLU, TF-1 proliferation with IL-5, Ab 0.00017 nM [2]: 76600 RLU and 80400 RLU
RLU, TF-1 proliferation with IL-5, Ab 0.00085 nM [2]: 66300 RLU and 74200 RLU
RLU, TF-1 proliferation with IL-5, Ab 0.00427 nM [2]: 41500 RLU and 46000 RLU
RLU, TF-1 proliferation with IL-5, Ab 0.02133 nM [2]: 38600 RLU and 44100 RLU
RLU, TF-1 proliferation with IL-5, Ab 0.10667 nM [2]: 41600 RLU and 38800 RLU
RLU, TF-1 proliferation with IL-5, Ab 0.53333 nM [2]: 36400 RLU and 36800 RLU
RLU, TF-1 proliferation with IL-5, Ab 2.66667 nM [2]: 38400 RLU and 36800 RLU
RLU, TF-1 proliferation with IL-5, Ab 13.33333 nM [2]: 36200 RLU and 33500 RLU
Fluorescence intensity [3]: 33 MFI
Fluorescence intensity [4]: 28 MFI
OD450 nm [5]: 3.7 OD450 nm and 3.52 OD450 nm
OD450 nm [6]: 0.622 OD450 nm and 0.678 OD450 nm
Fluorescence intensity [7]: 82 MFI
OD450 nm [8]: 0.127 OD450 nm and 0.114 OD450 nm
Fluorescence intensity [9]: 68 MFI
OD450 nm [10]: 1.87 OD450 nm and 1.92 OD450 nm
Fluorescence intensity [11]: 85 MFI
OD450 nm [12]: 3.47 OD450 nm and 3.5 OD450 nm
Kd [13]: < 0.0637 nM
koff [13]: < 1e-05 s⁻¹
kon [13]: 157000 M⁻¹ s⁻¹
OD450 nm [14]: 0.098 OD450 nm and 0.127 OD450 nm
Fluorescence intensity [15]: 90 MFI
OD450 nm [16]: 3.03 OD450 nm and 2.93 OD450 nm
Fluorescence intensity [17]: 41 MFI
OD450 nm [18]: 0.194 OD450 nm and 0.244 OD450 nm

— patent US20220010008A1
